{"source": "IntAct's records for PubMed 22699936", "parents": {"B1": {"name": "Centrosomal P4.1-associated protein (Homo sapiens), Q9HC77 (parent)", "chain": "MFLMPTSSELNSGQNFLTQWMTNPSRAGVILNRGFPILEADKEKRAAVDISTSFPIKGTHFSDSFSFINEEDSLLEEQKLESNNPYKPQSDKSETHTAFPCIKKGPQVAACHSAPGHQEENKNDFIPDLASEFKEGAYKDPLFKKLEQLKEVQQKKQEQLKRQQLEQLQRLMEEQEKLLTMVSGQCTLPGLSLLPDDQSQKHRSPGNTTTGERATCCFPSYVYPDPTQEETYPSNILSHEQSNFCRTAHGDFVLTSKRASPNLFSEAQYQEAPVEKNNLKEENRNHPTGESILCWEKVTEQIQEANDKNLQKHDDSSEVANIEERPIKAAIGERKQTFEDYLEEQIQLEEQELKQKQLKEAEGPLPIKAKPKQPFLKRGEGLARFTNAKSKFQKGKESKLVTNQSTSEDQPLFKMDRQQLQRKTALKNKELCADNPILKKDSKARTKSGSVTLSQKPKMLKCSNRKSLSPSGLKIQTGKKCDGQFRDQIKFENKVTSNNKENVTECPKPCDTGCTGWNKTQGKDRLPLSTGPASRLAAKSPIRETMKESESSLDVSLQKKLETWEREKEKENLELDEFLFLEQAADEISFSSNSSFVLKILERDQQICKGHRMSSTPVKAVPQKTNPADPISHCNRSEDLDHTAREKESECEVAPKQLHSLSSADELREQPCKIRKAVQKSTSENQTEWNARDDEGVPNSDSSTDSEEQLDVTIKPSTEDRERGISSREDSPQVCDDKGPFKDTRTQEDKRRDVDLDLSDKDYSSDESIMESIKHKVSEPSRSSSLSLSKMDFDDERTWTDLEENLCNHDVVLGNESTYGTPQTCYPNNEIGILDKTIKRKIAPVKRGEDLSKSRRSRSPPTSELMMKFFPSLKPKPKSDSHLGNELKLNISQDQPPGDNARSQVLREKIIELETEIEKFKAENASLAKLRIERESALEKLRKEIADFEQQKAKELARIEEFKKEEMRKLQKERKVFEKYTTAARTFPDKKEREEIQTLKQQIADLREDLKRKETKWSSTHSRLRSQIQMLVRENTDLREEIKVMERFRLDAWKRAEAIESSLEVEKKDKLANTSVRFQNSQISSGTQVEKYKKNYLPMQGNPPRRSKSAPPRDLGNLDKGQAASPREPLEPLNFPDPEYKEEEEDQDIQGEISHPDGKVEKVYKNGCRVILFPNGTRKEVSADGKTITVTFFNGDVKQVMPDQRVIYYYAAAQTTHTTYPEGLEVLHFSSGQIEKHYPDGRKEITFPDQTVKNLFPDGQEESIFPDGTIVRVQRDGNKLIEFNNGQRELHTAQFKRREYPDGTVKTVYANGHQETKYRSGRIRVKDKEGNVLMDTEL"}}, "data": [{"variants_of": "B1", "settings": "with tnks1_human TNKS", "values": [{"variant": "D1302A", "effect of a mutation on the interaction": "disrupting interaction"}, {"variant": "G1303A", "effect of a mutation on the interaction": "disrupting interaction"}]}]}
